Values of other authors as cited in article PMC4327442.
pKd: −log10 of the molar value.

Target: IL-18 (Homo sapiens) (UniProt Q14116)
Sequence (Q14116 37-193): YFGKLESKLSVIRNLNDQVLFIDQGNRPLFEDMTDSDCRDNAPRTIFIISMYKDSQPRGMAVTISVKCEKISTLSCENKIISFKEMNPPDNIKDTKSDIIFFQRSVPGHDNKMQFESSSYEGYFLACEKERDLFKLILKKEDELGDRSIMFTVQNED

IL-18BP, sequence (O95998 31-194): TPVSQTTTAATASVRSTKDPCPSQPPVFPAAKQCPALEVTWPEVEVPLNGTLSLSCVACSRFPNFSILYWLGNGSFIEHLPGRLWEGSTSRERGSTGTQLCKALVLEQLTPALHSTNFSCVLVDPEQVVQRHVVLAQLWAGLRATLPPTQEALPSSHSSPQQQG

Substance: IL-18BP (from UniProt O95998)
- pKd: 9.40
